T1: human CD73 expressed at the cell surface (human, UniProt P21589 27-549)
T1 sequence: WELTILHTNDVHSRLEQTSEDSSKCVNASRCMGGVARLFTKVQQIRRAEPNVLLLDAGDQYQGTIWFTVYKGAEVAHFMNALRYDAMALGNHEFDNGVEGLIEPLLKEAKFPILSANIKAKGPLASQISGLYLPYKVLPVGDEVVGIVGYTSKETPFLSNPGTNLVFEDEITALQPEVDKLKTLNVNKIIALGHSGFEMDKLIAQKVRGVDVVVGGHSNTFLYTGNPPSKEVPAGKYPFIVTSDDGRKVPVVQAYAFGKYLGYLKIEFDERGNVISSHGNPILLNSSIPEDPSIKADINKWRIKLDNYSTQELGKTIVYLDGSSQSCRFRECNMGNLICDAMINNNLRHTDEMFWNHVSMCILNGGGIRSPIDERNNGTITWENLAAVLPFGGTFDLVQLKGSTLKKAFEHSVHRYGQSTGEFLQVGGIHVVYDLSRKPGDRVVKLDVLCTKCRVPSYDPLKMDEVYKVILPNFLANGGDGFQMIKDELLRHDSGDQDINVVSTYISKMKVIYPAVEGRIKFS

T2: mouse CD73 expressed on a recombinant host cell line (mouse, UniProt Q61503 29-551)
T2 construct: whole, on cells; also called moCD73
T2 sequence (looked up): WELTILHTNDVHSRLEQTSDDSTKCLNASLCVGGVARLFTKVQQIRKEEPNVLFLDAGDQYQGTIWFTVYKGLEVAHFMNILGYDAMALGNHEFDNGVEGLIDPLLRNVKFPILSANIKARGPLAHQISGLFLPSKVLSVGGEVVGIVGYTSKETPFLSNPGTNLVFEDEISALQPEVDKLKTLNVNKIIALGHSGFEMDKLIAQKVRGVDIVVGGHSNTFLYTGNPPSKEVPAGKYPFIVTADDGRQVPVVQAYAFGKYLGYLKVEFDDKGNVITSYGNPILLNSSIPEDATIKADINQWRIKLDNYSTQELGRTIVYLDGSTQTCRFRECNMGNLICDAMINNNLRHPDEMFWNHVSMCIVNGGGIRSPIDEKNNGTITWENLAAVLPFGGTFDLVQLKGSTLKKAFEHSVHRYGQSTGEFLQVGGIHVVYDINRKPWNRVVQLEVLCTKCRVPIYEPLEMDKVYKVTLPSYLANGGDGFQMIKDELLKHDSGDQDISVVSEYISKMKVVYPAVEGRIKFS

T3: recombinant human CD73-His extracellular domain protein (soluble dimer) (human, UniProt P21589 27-547)
T3 construct: Purified as a dimer; also called huCD73; soluble recombinant human CD73
T3 sequence: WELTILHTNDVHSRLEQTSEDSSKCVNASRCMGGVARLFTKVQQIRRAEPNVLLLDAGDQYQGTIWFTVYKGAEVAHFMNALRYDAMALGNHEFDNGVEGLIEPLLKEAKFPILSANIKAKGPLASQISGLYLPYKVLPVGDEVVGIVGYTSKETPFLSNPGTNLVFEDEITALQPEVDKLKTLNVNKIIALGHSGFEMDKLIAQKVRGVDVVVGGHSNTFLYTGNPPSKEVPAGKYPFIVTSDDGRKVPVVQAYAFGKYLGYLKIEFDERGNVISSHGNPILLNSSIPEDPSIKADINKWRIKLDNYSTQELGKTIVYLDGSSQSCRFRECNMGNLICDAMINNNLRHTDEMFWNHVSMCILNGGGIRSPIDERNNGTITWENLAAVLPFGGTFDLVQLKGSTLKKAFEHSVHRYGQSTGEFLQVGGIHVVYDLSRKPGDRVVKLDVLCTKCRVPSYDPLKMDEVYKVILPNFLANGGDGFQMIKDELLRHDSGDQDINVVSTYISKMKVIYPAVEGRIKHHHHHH

B1: antibody 11E1 (antibody, human IgG1, V domains shown)
VH: EIQLQQSGPELVKPGASVKVSCKASGYAFTSYNMYWVKQSHGKSLEWIGYIDPYNGGTSYNQKFKGKATLTVDKSSSTAYMHLNSLTSEDSAVYYCARGYGNYKAWFAYWGQGTLVTVSA
VL: DAVMTQTPKFLLVSAGDRVTITCKASQSVTNDVAWYQQKPGQSPKLLIYYASNRYTGVPDRFTGSGYGTDFTFTISTVQAEDLAVYFCQQDYSSLTFGAGTKLELK
notes: Produced as chimeric human IgG1 with heavy chain N297Q (Kabat EU numbering); also called 1E11
B2: antibody 6E1 (antibody, human IgG1, V domains shown)
VH: B1 VH with I2F, S44R, T58S, S85N, G101N
VL: B1 VL with D1S, A2I, V78M
notes: Produced as chimeric human IgG1 with heavy chain N297Q (Kabat EU numbering)
B3: antibody 3C12 (antibody, human IgG1, V domains shown)
VH: B1 VH with E1Q, T30A, Y35N, E46D, T58S, Q62L, K63T, S77T
VL: DVVMTQTPKFLLVSAGDRVTITCKASQSVSNDVAWYQQKPGQSPKLLIYYASTRYTGVPDRFTGSGYGTDFTFTISTVQAEDLAVYFCQQDYSSLTFGAGTKLELKR
notes: Produced as chimeric human IgG1 with heavy chain N297Q (Kabat EU numbering); RTVAAP)

From patent US20180030144A1 (INNATE PHARMA, published 2018) come the findings set out here.

Residue numbers refer to the chain shown, from its start. Names and notes keep the numbering of the source.

The first test addresses T1, human CD73 expressed at the cell surface. The test is described as follows: cell-based or functional assay.
As for B1, the “decrease of the enzymatic activity of cellular CD73 (MDA-MB-231 cells)” value (“decrease” for short) is over 75%.

In the case of B2, the “decrease” value was over 75%.

Regarding B3, the “decrease” value is over 75%.

The target is the same in another test. Nature of the test: cell-based or functional assay. This is another data set of the same source.
For B1, the “EC50 for neutralization of the enzymatic activity of cellular CD73 (MDA-MB-231 cells, free phosphate from AMP)” value came to 0.195 µg/mL.

Turning to B2, the “EC50 for neutralization of the enzymatic activity of cellular CD73 (MDA-MB-231 cells, free phosphate from AMP)” value worked out at 0.209 µg/mL.

Regarding B3, the “EC50 for neutralization of the enzymatic activity of cellular CD73 (MDA-MB-231 cells, free phosphate from AMP)” value came out at 0.21 µg/mL.

For the next test the target is unchanged. The test is described as follows: cell-based or functional assay. The source holds these as a separate data set.
On to B1, for which the “EC50 for neutralization of 5'-ectonucleotidase activity, mean over MDA-MB-231, H292 and A375 cells” value (“EC50 … over MDA-MB-231, H292 and A375 cells” for short) came to 0.1 µg/mL; the “EC70 for neutralization of 5'-ectonucleotidase activity, mean over MDA-MB-231, H292 and A375 cells” value (from here on “EC70 … over MDA-MB-231, H292 and A375 cells”) was 0.15 µg/mL; the “EC100 for neutralization of 5'-ectonucleotidase activity, mean over MDA-MB-231, H292 and A375 cells” value (from here on “EC100 … over MDA-MB-231, H292 and A375 cells”) was 0.52 µg/mL.

Regarding B2, the “EC50 … over MDA-MB-231, H292 and A375 cells” value worked out at 0.13 µg/mL; the “EC70 … over MDA-MB-231, H292 and A375 cells” value is 0.19 µg/mL; the “EC100 … over MDA-MB-231, H292 and A375 cells” value is 0.68 µg/mL.

For the molecule B3, the “EC50 … over MDA-MB-231, H292 and A375 cells” value amounted to 0.14 µg/mL; the “EC70 … over MDA-MB-231, H292 and A375 cells” value stood at 0.18 µg/mL; the “EC100 … over MDA-MB-231, H292 and A375 cells” value was 0.3 µg/mL.

A further test addresses T2, mouse CD73 expressed on a recombinant …. The test is described as follows: flow cytometry titration on a mouse-CD73-expressing recombinant host cell line, median of fluorescence. For orientation: Flow cytometry measures light scatter and fluorescence of single cells or particles in a stream.
Consider B1, for which the binding result is “no binding (tested: about 30-40 µg/ml)”.

Consider B2, for which the binding result is given as “no binding (tested: about 30-40 µg/ml)”.

As for B3, the binding result is on record as “no binding (tested: about 30 µg/ml)”.

The target in another test is T4, cynomolgus CD73 expressed on a recombinant host cell line (cynomolgus).
T4 construct: whole, on cells; also called cynoCD73
Nature of the test: flow cytometry titration on a cynomolgus-CD73-expressing recombinant host cell line, median of fluorescence.
B1: the half-maximal effective concentration (EC50 (read off the curve)) (usually the concentration needed to bring the measured effect to its halfway point) is about 0.4 µg/mL.

On to B2, for which the 50% effective concentration (EC50 (read off the curve)) was about 0.4 µg/mL.

As for B3, the “EC50 (read off the curve)” value was about 0.4 µg/mL.

The target of a further test is T3, recombinant human CD73-His …. Nature of the test: SPR (Biacore T100), antibody captured on Protein-A, soluble dimeric CD73 injected 1.23-300 nM, 1:1 model, bivalent affinity. As for the experimental part: SPR measurements were performed on a Biacore T100 apparatus (Biacore GE Healthcare) at 25° C. In all Biacore experiments HBS-EP+(Biacore GE Healthcare) and NaOH 10 mM served as running buffer and regeneration buffer respectively. Sensorgrams were analyzed with Biacore T100 Evaluation software. Protein-A was purchase from (GE Healthcare). Human soluble dimeric CD73 proteins were cloned, produced and purified at Innate Pharma.
Protein-A proteins were immobilized covalently to carboxyl groups in the dextran layer on a Sensor Chip CMS. The chip surface was activated with EDC/NHS (N-ethyl-N′-(3-dimethylaminopropyl) carbodiimide hydrochloride and N-hydroxysuccinimide (Biacore GE Healthcare). Protein-A was diluted to 10 μg/ml in coupling buffer (10 mM acetate, pH 5.6) and injected until the appropriate immobilization level was reached (i.e. 2000 RU). Deactivation of the remaining activated groups was performed using 100 mM ethanolamine pH 8 (Biacore GE Healthcare).
Affinity study was carried out according to a standard Capture-Kinetic protocol recommended by the manufacturer (Biacore GE Healthcare kinetic wizard). Serial dilutions of human recombinant soluble dimeric CD73 proteins, ranging from 1.23 to 300 nM were sequentially injected over the captured anti-CD73 antibodies and allowed to dissociate for 10 min before regeneration. The entire sensorgram sets were fitted using the 1:1 kinetic binding model. Bivalent affinities and kinetic association and dissociation rate constants are shown below in Table 2 below.
On to B1, for which the Kd was 0.822 nM.

Regarding B2, the Kd came out at 0.819 nM.

For the molecule B3, the Kd was determined as 0.682 nM.
